Read-outs that look alike come from different tables or passages of the source. Each block holds one binder with its values, some of them ahead of it. Bridge positions count the residues as written; N and C are the ends. Square brackets hold non-standard residues; d marks the D form. Ends that are not written are not given here. * marks the point of attachment. Trp(βS-Me,7-OMe) = COc1cccc2c([C@H](C)[C@H](N)C(=O)O)c[nH]c12; Trp(7-Cl) = N[C@@H](Cc1c[nH]c2c(Cl)cccc12)C(=O)O; Biotin = O=C1N[C@H]2[C@H](CS[C@H]2CCCCC(=O)*)N1; Phe(4-COOH) = N[C@@H](Cc1ccc(C(=O)O)cc1)C(=O)O; Trp(7-aza) = N[C@@H](Cc1c[nH]c2ncccc12)C(=O)O; Pip(4-aza) = O=C(O)[C@@H]1CNCCN1; 4Pal = N[C@@H](Cc1ccncc1)C(=O)O; NMeE = CN[C@@H](CCC(=O)O)C(=O)O; NMeS = CN[C@@H](CO)C(=O)O; αMeS = C[C@](N)(CO)C(=O)O; Nle = CCCC[C@H](N)C(=O)O; AEA = NCCOCC(=O)O; Sar = CNCC(=O)O
Experiments:
[1] = target: C'-terminally 6His-tagged human soluble TNFR1 (sTNFR1, residues 1-211) (human); experiment: TR-FRET displacement of biotinylated peptide SEQ ID NO. 1 from sTNFR1-6His
[2] = target: T1, recombinant human TNFR1 extracellular domain (ECD), biotinylated via C-terminal Avi-tag, construct SEQ. ID NO. P2 (human); experiment: SPR (Cytiva 8K/8K+), peptide analyte over captured biotinylated human TNFR1 ECD
T1 chain: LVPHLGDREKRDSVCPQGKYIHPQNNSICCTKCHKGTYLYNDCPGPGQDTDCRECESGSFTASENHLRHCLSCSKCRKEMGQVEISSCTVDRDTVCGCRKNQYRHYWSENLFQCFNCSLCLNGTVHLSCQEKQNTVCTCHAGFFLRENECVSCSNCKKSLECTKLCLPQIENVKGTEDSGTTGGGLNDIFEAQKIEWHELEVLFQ

[3] = target: T2, human soluble TNFR1, C-terminally 6His-tagged (sTNFR1-6His, residues 1-211), SEQ. ID NO. P1 (human); experiment: TR-FRET displacement of biotinylated peptide SEQ ID NO. 1 from sTNFR1-6His; 4-parameter fit
T2 chain: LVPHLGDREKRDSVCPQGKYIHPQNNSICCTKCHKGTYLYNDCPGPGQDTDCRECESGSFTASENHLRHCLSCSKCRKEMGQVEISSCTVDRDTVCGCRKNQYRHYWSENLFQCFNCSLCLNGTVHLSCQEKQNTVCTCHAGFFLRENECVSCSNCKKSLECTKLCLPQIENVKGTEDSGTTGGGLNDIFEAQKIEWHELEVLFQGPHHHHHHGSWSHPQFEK

[4] = target: T3, TNFR1 on THP-1 Lucia NF-κB reporter cells, P19438; experiment: cell-based or functional assay
T3 chain: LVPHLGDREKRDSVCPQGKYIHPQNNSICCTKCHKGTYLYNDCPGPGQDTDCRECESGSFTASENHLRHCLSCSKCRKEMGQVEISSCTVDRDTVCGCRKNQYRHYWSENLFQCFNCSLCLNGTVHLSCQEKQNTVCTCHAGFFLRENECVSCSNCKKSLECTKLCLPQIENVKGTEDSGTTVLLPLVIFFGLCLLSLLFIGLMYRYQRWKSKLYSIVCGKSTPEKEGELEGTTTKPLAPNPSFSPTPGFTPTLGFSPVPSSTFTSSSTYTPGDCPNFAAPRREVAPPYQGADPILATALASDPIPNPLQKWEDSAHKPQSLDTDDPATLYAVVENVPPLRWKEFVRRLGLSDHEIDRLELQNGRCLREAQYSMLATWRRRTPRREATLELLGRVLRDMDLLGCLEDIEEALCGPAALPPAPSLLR

[5] = target: T4, Recombinant human TNFR1 extracellular domain (ECD) protein, biotinylated via C-terminal avi-tag (human); experiment: SPR, peptide analyte on captured biotinylated TNFR1 ECD
T4 chain: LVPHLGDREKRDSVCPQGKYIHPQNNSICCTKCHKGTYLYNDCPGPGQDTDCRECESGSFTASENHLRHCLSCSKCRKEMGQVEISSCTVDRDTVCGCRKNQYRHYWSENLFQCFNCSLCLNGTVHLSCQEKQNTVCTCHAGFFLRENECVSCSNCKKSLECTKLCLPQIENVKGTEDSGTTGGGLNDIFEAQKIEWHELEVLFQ

[6] = target: T5, C'-terminally 6His-tagged human soluble TNFR1 (sTNFR1, residues 1-211) (human); experiment: TR-FRET displacement of biotinylated peptide SEQ ID NO. 1 from sTNFR1-6His
T5 chain: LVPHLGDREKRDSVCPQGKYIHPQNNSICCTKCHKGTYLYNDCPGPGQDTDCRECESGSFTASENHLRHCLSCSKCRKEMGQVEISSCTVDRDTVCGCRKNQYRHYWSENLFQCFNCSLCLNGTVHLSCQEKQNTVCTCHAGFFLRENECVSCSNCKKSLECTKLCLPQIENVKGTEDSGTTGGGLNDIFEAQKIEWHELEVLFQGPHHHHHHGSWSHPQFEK

[7] = target: T6, TNFR1 on THP-1 Lucia NF-κB cells, P19438; experiment: cell-based or functional assay
T6 chain: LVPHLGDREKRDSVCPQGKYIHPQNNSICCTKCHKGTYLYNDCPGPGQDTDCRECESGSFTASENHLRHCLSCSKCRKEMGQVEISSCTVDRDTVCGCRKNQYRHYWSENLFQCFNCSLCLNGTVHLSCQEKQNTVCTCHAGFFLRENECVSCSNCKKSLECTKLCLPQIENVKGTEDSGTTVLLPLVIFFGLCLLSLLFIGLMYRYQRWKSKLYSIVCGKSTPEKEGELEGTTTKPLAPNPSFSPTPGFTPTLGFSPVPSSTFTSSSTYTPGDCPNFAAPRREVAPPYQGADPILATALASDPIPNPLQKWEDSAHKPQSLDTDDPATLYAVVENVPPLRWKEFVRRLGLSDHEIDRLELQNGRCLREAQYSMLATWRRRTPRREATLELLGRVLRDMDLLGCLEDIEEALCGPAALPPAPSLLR

[8] = target: T7, TNFR1 on THP-1 Lucia NF-kB reporter cells, P19438; experiment: cell-based or functional assay
T7 chain: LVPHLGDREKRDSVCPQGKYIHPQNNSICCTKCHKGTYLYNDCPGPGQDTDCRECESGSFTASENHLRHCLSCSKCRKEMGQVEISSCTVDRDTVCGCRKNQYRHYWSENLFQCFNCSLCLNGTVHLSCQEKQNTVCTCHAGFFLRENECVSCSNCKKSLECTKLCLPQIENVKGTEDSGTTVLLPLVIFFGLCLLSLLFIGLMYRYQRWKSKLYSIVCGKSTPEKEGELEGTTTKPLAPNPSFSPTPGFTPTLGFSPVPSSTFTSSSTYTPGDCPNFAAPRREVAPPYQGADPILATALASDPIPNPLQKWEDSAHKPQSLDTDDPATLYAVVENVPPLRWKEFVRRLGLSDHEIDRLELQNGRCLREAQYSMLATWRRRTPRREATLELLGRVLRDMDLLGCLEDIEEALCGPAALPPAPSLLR

IC50 [1]: 0.7 nM
Kd^app [1]: 1.01 nM
B1: SEQ ID NO. 255 (peptide)
peptide: {CH2CO}-[Nle][4Pal][Pip(4-aza)][Trp(7-aza)][NMeE]N[4Pal][Trp(7-Cl)][αMeS][Phe(4-COOH)]Y[Sar][Trp(βS-Me,7-OMe)]CGEE-NH2
modifications: thioether N-14
SMILES: CCCC[C@@H]1NC(=O)CSC[C@@H](C(=O)NCC(=O)N[C@@H](CCC(=O)O)C(=O)N[C@@H](CCC(=O)O)C(N)=O)NC(=O)[C@H]([C@@H](C)c2c[nH]c3c(OC)cccc23)NC(=O)CN(C)C(=O)[C@H](Cc2ccc(O)cc2)NC(=O)[C@H](Cc2ccc(C(=O)O)cc2)NC(=O)[C@](C)(CO)NC(=O)[C@H](Cc2c[nH]c3c(Cl)cccc23)NC(=O)[C@H](Cc2ccncc2)NC(=O)[C@H](CC(N)=O)NC(=O)[C@H](CCC(=O)O)N(C)C(=O)[C@H](Cc2c[nH]c3ncccc23)NC(=O)[C@@H]2CNCCN2C(=O)[C@H](Cc2ccncc2)NC1=O

Kd [2]: 7.43 nM
IC50 [3]: 9.87 nM
THP-1 IC50 [4]: 36.4 nM
B2: SEQ ID NO. 289 (Example No. 289) macrocyclic peptide (peptide)
peptide: FYSWGNYWSYYGWCGEE
modifications: not checked

Kd [5]: 0.3 nM
IC50 [6]: 1.21 nM
THP-1 IC50 [7]: 3 nM
B3: SEQ ID NO. 242 (peptide)
peptide: {CH2CO}-KYSW[dP]Q[4Pal]W[αMeS][Phe(4-COOH)]Y[Sar]WC-NH2
modifications: thioether N-14
SMILES: CN1CC(=O)N[C@@H](Cc2c[nH]c3ccccc23)C(=O)N[C@H](C(N)=O)CSCC(=O)N[C@@H](CCCCN)C(=O)N[C@@H](Cc2ccc(O)cc2)C(=O)N[C@@H](CO)C(=O)N[C@@H](Cc2c[nH]c3ccccc23)C(=O)N2CCC[C@@H]2C(=O)N[C@@H](CCC(N)=O)C(=O)N[C@@H](Cc2ccncc2)C(=O)N[C@@H](Cc2c[nH]c3ccccc23)C(=O)N[C@@](C)(CO)C(=O)N[C@@H](Cc2ccc(C(=O)O)cc2)C(=O)N[C@@H](Cc2ccc(O)cc2)C1=O

THP-1 IC50 [8]: 227 nM
B4: SEQ ID NO. 1 (peptide)
peptide: {CH2CO}-FYSW[Sar]NYWSYY[Sar]WCG[AEA]K(Biotin)
modifications: thioether N-14

IC50 [1]: 0.55 nM
B5: SEQ ID NO. 270 (peptide)
peptide: {CH2CO}-[Nle][4Pal][NMeS]W[NMeE]N[4Pal][Trp(7-Cl)][αMeS][Phe(4-COOH)][Phe3CONH2][Sar][Trp(βS-Me,7-OMe)]C-NH2
modifications: thioether N-14

Source: US20240287138A1, “CYCLIC PEPTIDES FOR INHIBITING TNF RECEPTOR 1 ACTIVITY” (Merck Sharp & Dohme LLC, priority 2023, published 2024)
